These results are taken from the supplement of paper PMC12042874.

± gives the uncertainty stated by the source.

This data set is described as follows: amyloid nucleation score (Sup35N fusion, yeast selection) (log enrichment); library NNK2; higher = more nucleation; inactive = no reads after selection. An outline of the steps:
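The nucleation score is the log enrichment of output over input reads, calculated with DiMSum and centred on the mode score of non-aggregating sequences. Sequences with under 100 input reads were excluded. Reads came from Illumina sequencing of plasmid inserts from psi-negative yeast expressing Sup35N fused to peptides of 20 random codons, induced 24 hours with 100 μM copper sulfate and grown 7 days at 30°C without adenine and uracil.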
Take KYSCTLVPFLLARFDLGSWG: the amyloid nucleation score was -0.112 ± 0.34.
As to KYSVMLALLEPIRWTWLIQF, the amyloid nucleation score was 0.323 ± 0.62.
In turn, KYTGNFGAVSL gave an amyloid nucleation score of 0.22 ± 0.65.
Consider KYVGSWITTDVSFECTVI, for which the amyloid nucleation score was -0.46 ± 1.
LACIPGGKVNSPLGWHGFRD returned an amyloid nucleation score of 0.057 ± 1.1.
In the case of LADQSYKPAWLFPGSTSVLV, the amyloid nucleation score is 0.078 ± 0.74.
The substance LADTGA showed an amyloid nucleation score of 0.108 ± 0.42.
Next, LAFPCFRVSGYESYGFVRKL: 0.436 ± 0.31.
As to LAFTFRSTRRTTSHSEVSSS, the amyloid nucleation score is 1.38 ± 0.43.
Next, LAGLYYVGVVENGMDMQDRK: -0.329 ± 0.29; LAHGG: 3.16 ± 0.095; LAHVVNIVCFNF: 7.836 ± 0.026.
Take LAKADPWHLKMLFSAMLRQD: the amyloid nucleation score is 0.332 ± 0.26.
For the substance LALSWRNDSYNLKNVLRLLG, the amyloid nucleation score is -1.16 ± 0.28.
LANFGIIVWCCTCFYDD yielded an amyloid nucleation score of 8.268 ± 0.039.
The substance LANLTSWSILMAKRRLRLTL returned an amyloid nucleation score of 1.06 ± 0.33.
Substance LARSLSVNQYKPNLLFVGCD came in with an amyloid nucleation score of -1.52 ± 1.1.
Turning to LASAFG, the amyloid nucleation score was -0.792 ± 0.79.
For LASFFCFGIINTAC, the amyloid nucleation score is -0.019 ± 0.17.
In turn, LASLSDFPFYLTWWS showed an amyloid nucleation score of -0.157 ± 0.45.
With LASTDTWHCVGGEFHKSA, the amyloid nucleation score was -0.571 ± 0.28.
On to LAVLGIYDTLLYCHTVLYEI, for which the amyloid nucleation score was -0.302 ± 0.36.
Next, LAWSVLNMFRKVAFN: 0.089 ± 1.1.
Consider LAYIARR, for which the amyloid nucleation score was -0.035 ± 0.76.
As to LAYLYTCLLLWSGSCNMTQV, the amyloid nucleation score result was “inactive”.
Regarding LCCGSLDIYWFVFFF, the amyloid nucleation score was 1.63 ± 0.25.
For the substance LCCRCIKVIAALKLNIENHQ, the amyloid nucleation score came out at 3.65 ± 0.095.
On to LCDPLLVKNCRLRLTVLWGM, for which the amyloid nucleation score was -0.057 ± 0.63.
LCGLSTLLFFKMDV: the amyloid nucleation score was determined as 0.716 ± 0.6.
Take LCIYFICSGLVRRLEWVG: the amyloid nucleation score was -0.871 ± 0.3.
The result for LCLVQLSDSCNQ reads 7.917 ± 0.055; that for LCNGGWIIRRADVSGVTNVE, -0.09 ± 0.24.
The result for LCNYLFSFEQMRNN reads -0.124 ± 0.42; that for LCRDCPNRVQLCQLL, -0.684 ± 0.54.
Next, LCSSVLGGNRETAECFRFDQ: -0.67 ± 0.34.
LCSTG registered an amyloid nucleation score of 0.815 ± 0.53.
Next, LCTGTCDTSAHVSSIYKFRD: -0.712 ± 1.1; LCVSAVLKLVGNLWDDEREC: -0.091 ± 0.79; LCWCWKSWHNARRWTSWRMF: 0.13 ± 0.56.
Consider LCWPIFNFVFVSNPMLKLRL, for which the amyloid nucleation score entry is “inactive”.
Next, LCYSFYPQSVKSFEFPNYFY: “inactive”.
LDDSYPCFASIITI registered an amyloid nucleation score of 1.01 ± 0.41.
LDIYLLDMLWPLCAVLSNIG had an amyloid nucleation score of -0.541 ± 0.38.
The result for LDNACSQGGGDFRLSLS reads -0.773 ± 0.55; that for LDTARVNGDSYWSL, 3.57 ± 0.11; that for LDTHRPPYQDRVWLTRSANT, 1.79 ± 0.24.
As for LDTVPTWFYQVMWGYDWVLK, the amyloid nucleation score came out at 2.81 ± 0.11.
LDWHAEHKGSCSFPDNEMLS showed an amyloid nucleation score of 0.394 ± 0.56.
Take LELHMGNLSSSTAYWLRRYS: the amyloid nucleation score was -0.426 ± 0.48.
The substance LFADGFGSRINDCNTVSMF yielded an amyloid nucleation score of 0.881 ± 0.47.
LFALLK displayed an amyloid nucleation score of -0.005 ± 0.54.
LFARWTFDNFSLRVVLQTRI: the amyloid nucleation score is -0.861 ± 0.25.
Consider LFCVRSRLGVGCYRIWG, for which the amyloid nucleation score worked out at 5.364 ± 0.046.
Regarding LFDGASMSRRIVMWDMGWWG, the amyloid nucleation score turned out to be 4.54 ± 0.046.
In turn, LFDLDSESRMTPQGGLRNAT yielded an amyloid nucleation score of -0.665 ± 0.54.
Substance LFEAWSIYIYFASLKGTAGG gave an amyloid nucleation score of -1.26 ± 1.1.
Next, LFEMP: 0.728 ± 0.74.
As for LFFALSMCSIF, the amyloid nucleation score was 6.348 ± 0.032.
For the substance LFGFLTTRVPWIFSWMVPTA, the amyloid nucleation score is -0.003 ± 0.44.
For LFGYGQEDGQWCGDEFETVK, the amyloid nucleation score came to 0.769 ± 0.26.
Turning to LFHCLSELLVGSSNSRFVCE, the amyloid nucleation score came to 0.456 ± 0.42.
Next, LFLRAHILGTVTCIRDFAPG: 1.14 ± 0.18.
LFLSLKYPLSYYASTVDNLA gave an amyloid nucleation score of 0.6 ± 0.74.
In turn, LFMLGMSAQLVFAFSLLGGI showed an amyloid nucleation score of 2.62 ± 0.078.
Next, LFMNRHVYVLQVVEMYKRQT: -1.07 ± 1.1; LFRCIKDMAY: 0.202 ± 0.51.
LFRQEAMIPL: the amyloid nucleation score came to 0.594 ± 0.66.
As for LFRWM, the amyloid nucleation score amounted to 3.92 ± 0.06.
LFSHFYSYDY: the amyloid nucleation score was -0.317 ± 1.1.
Substance LFSHL showed an amyloid nucleation score of -1.4 ± 0.54.
LFSKDVSRTLGPACFICEGT returned an amyloid nucleation score of 2.78 ± 0.072.
Turning to LFVDKMCERDFYFVSSHRYR, the amyloid nucleation score turned out to be 0.306 ± 0.8.
The substance LFVRAFEPSGDHLCYQYVCL yielded an amyloid nucleation score of -0.566 ± 0.38.
LFWFIYGSYRTVRACGRYSN: the amyloid nucleation score turned out to be 0.516 ± 0.64.
As for LGIASLQNGSGIGAWQAY, the amyloid nucleation score amounted to 0.04 ± 0.76.
LGIVHGNNY registered an amyloid nucleation score of -1.14 ± 0.76.
As for LGLLFAINTVLSSQLR, the amyloid nucleation score amounted to 7.703 ± 0.076.
The substance LGMSGCVCSYVYLRGFGLIL had an amyloid nucleation score of -0.658 ± 0.37.
LGPEYTWQI had an amyloid nucleation score of 0.548 ± 0.42.
Consider LGQSCTYQCQQLCSLSHNRV, for which the amyloid nucleation score is -0.214 ± 1.1.
In turn, LGQVTDLSILCSSDQSLMVC registered an amyloid nucleation score of -0.075 ± 0.26.
Next, LGRCY: 2.72 ± 0.062; LGRQWFRIARGG: 0.654 ± 0.32.
In the case of LGTEAEWCVGLMCSVKRYQM, the amyloid nucleation score was 4.58 ± 0.068.
Substance LGYFTLSFS had an amyloid nucleation score of 0.627 ± 0.81.
Regarding LGYLIPNDEYFILWVIVCWN, the amyloid nucleation score is -0.024 ± 1.
On to LHDLDWYSGILIQFDSDMRW, for which the amyloid nucleation score was determined as 1.37 ± 0.15.
Next, LHFGAGLTSSVCPSLYSQ: -0.931 ± 1.1; LHFTYCGSVMNVANDMVFVQ: 0.106 ± 1.
Substance LHGQVYMIQG came in with an amyloid nucleation score of 2.17 ± 0.13.
Substance LHHFSVTYNSITFCLNFPFR yielded an amyloid nucleation score of 4.11 ± 0.065.
In turn, LHQGSVCWDWLPVYEVTVLG came in with an amyloid nucleation score of 0.049 ± 0.44.
In turn, LHQTV gave an amyloid nucleation score of 0.79 ± 0.57.
The substance LHTTCLFSRWNVFL gave an amyloid nucleation score of 2.3 ± 0.076.
Take LIARSLGFKNVWS: the amyloid nucleation score was -0.575 ± 0.54.
With LIFRSVSVSFIPLLMKDGNG, the amyloid nucleation score was -0.042 ± 0.74.
As to LIKLMGLV, the amyloid nucleation score is 0.466 ± 0.43.
The result for LILMAENL reads -0.92 ± 1.1; that for LINWVVVLYG, 1.9 ± 0.14; that for LIRGVII, 0.21 ± 0.54.
LISTELGPTSFYLHKSLSSR: the amyloid nucleation score is -1.02 ± 0.62.
For LITIAIAARCSRMIGLQLFL, the amyloid nucleation score was -0.495 ± 0.32.
For the substance LIVKLANTGRSQHHIRSWLS, the amyloid nucleation score is -0.212 ± 0.38.
For LIWGTPYKAW, the amyloid nucleation score is 0.859 ± 0.41.
LIYIICVSLFSRVVMVIANF gave an amyloid nucleation score of -1.25 ± 0.78.
